Patent US20190015361A1 (published 2019)

B1: Ovalbumin (Sigma-Aldrich, A5503) (other, UniProt P01012 2-386, looked up)
chain: GSIGAASMEFCFDVFKELKVHHANENIFYCPIAIMSALAMVYLGAKDSTRTQINKVVRFDKLPGFGDSIEAQCGTSVNVHSSLRDILNQITKPNDVYSFSLASRLYAEERYPILPEYLQCVKELYRGGLEPINFQTAADQARELINSWVESQTNGIIRNVLQPSSVDSQTAMVLVNAIVFKGLWEKAFKDEDTQAMPFRVTEQESKPVQMMYQIGLFRVASMASEKMKILELPFASGTMSMLVLLPDEVSGLEQLESIINFEKLTEWTSSNVMEERKIKVYLPRMKMEEKYNLTSVLMAMGITDVFSSSANLSGISSAESLKISQAVHAAHAEINEAGREVVGSAEAGVDAASVSEEFRADHPFLFCIKHIATNAVLFFGRCVSP
notes: Negative control analyte in SPRi, injected at 10 µM; also called non-correlated protein; negative control sample
B2: human cathelicidin peptide LL-37 (peptide, UniProt P49913 134-170, looked up)
peptide: LLGDFFRKSKEKIGKEFKRIVQRIKDFLRNLVPRTES
notes: range 134-170; Synthetic peptide; from Innovagen for SPRi/TEM/CD, from AnaSpec for the cell culture work; also called cathelicidin LL-37

How the values were obtained:
Aβ40 (t=0 days) = target: T1, Aβ40 (t=0 days) (UniProt P05067 672-711); assay: SPRi, Aβ forms spotted on chip, ovalbumin injected
T1 construct: domain: Aβ40; Dissolved in PBS and spotted at 20 µM on the SPRi chip immediately after solubilization; mainly low-MW oligomers by CE; also called Aβ40 low-MW oligomers; Aβ40 solubilized in PBS
T1 sequence (P05067 672-711 limits assumed): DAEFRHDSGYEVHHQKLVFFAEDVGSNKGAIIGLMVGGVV

Aβ42 (t=0 days) = target: T2, Aβ42 (t=0 days) (human, UniProt P05067 672-713); assay: SPRi, Aβ forms spotted on chip, ovalbumin injected
T2 construct: domain: Aβ42 (residues 1-42 of the Aβ peptide); HFIP / CH3CN-Na2CO3-NaOH preparation, diluted to 20 µM in phosphate buffer and spotted on the SPRi chip immediately; mainly low-MW oligomers by CE; also called Aβ42 low-MW oligomers
T2 sequence (P05067 672-713 limits assumed): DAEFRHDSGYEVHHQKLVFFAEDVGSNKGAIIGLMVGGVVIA

Aβ42 (t=24 days) [1] = target: T3, Aβ42 (t=24 days) (human, UniProt P05067 672-713); assay: SPRi, Aβ forms spotted on chip, ovalbumin injected
T3 construct: domain: Aβ42 (residues 1-42 of the Aβ peptide); enriched in high-MW oligomers by CE; also called Aβ42 high-MW oligomers
T3 sequence (P05067 672-713 limits assumed): as above

Aβ42 (t=24 days) [2] = target: T3, Aβ42 (t=24 days); assay: SPRi, Aβ spotted on chip at 20 µM, LL-37 injected 1-100 µM, nonlinear fit of response at equilibrium

| Binder | binding result (Aβ40 (t=0 days)) | binding result (Aβ42 (t=0 days)) | binding result (Aβ42 (t=24 days) [1]) | Ka (Aβ42 (t=24 days) [2]) [M⁻¹] | Kd (Aβ42 (t=24 days) [2]) [µM] |
| --- | --- | --- | --- | --- | --- |
| B1 | no binding (tested: 10 µM) | no binding (tested: 10 µM) | no binding (tested: 10 µM) |  |  |
| B2 |  |  |  | 49200 | 20.3 |
